From PMC11784017 (2024)

T1: SVCV-G protein, purified, biotinylated (spring viremia of carp virus (SVCV), UniProt Q91DS0 19-509, biotin (biotinylated))
T1 chain: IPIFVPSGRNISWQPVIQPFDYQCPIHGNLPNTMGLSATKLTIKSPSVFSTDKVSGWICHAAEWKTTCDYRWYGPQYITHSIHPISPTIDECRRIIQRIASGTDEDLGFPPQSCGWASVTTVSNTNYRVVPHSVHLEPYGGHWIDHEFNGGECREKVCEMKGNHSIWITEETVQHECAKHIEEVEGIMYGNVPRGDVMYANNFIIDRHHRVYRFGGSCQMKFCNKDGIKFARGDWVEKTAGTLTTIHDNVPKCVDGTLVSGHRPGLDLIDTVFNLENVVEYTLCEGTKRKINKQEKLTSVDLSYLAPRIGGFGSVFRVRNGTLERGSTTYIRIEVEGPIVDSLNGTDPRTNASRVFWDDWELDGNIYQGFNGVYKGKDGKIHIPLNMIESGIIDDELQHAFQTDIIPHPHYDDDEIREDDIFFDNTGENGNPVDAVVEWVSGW

B1: scFv-1 (scFv)
chain 1: QSVEESGGRLVTPGTPLTLTCTASGFSLSTYYMTWVRQAPGKGLEWIGIIDPYGTTWSASWVKGRFTISRTSTTVDLKMTSLTAADTATYFCARIDSIYTIGHCDLWGQGTLVTVSL
chain 2: ELVMTQTPASVSAAVGGTVTIKCQASQSIGTALAWYQQKPGQPPKLLIYKTSTLASGVSSRFKGSGSGTEFTLTISDLECADAVTYYCQYAYYGGNDVGGAFGGGDRAGDP
B2: scFv-2 (scFv)
chain 1: QSVEESGGRLITPGTPLTLTCTASGFSLSSHYMIWVRRTPGKGLEWIGLIFISGSTNYANWAKGRFTVSRTSTTVDLKITSPTTEDTATYFCARGRGGTDYQSWLFGLWGQGTVVTVSS
chain 2: ELVMTQTPSPVSVAVGGTVTINCQSSPSVYSNYLSWYQQKPGQPPKQLIYGASSLASGVPSRFKGSGSGTQFTLTISGVECDDAATYYCVGWKGGPNGEFAFGGGDRAGDP

Target: T1, SVCV-G protein, purified, biotinylated
Test: BLI

| Binder | Kd |
| --- | --- |
| B1 | 3.12 µM |
| B2 | 3.71 µM |
